Assay results as given in patent US20230416361A1 (MIROBIO, published 2023).

T1: soluble cynomolgus macaque CD200R1 extracellular domain (cynomolgus macaque, UniProt G7NZT0 29-266)
T1 construct: extracellular domain; also called Cynomolgus CD200R
T1 sequence: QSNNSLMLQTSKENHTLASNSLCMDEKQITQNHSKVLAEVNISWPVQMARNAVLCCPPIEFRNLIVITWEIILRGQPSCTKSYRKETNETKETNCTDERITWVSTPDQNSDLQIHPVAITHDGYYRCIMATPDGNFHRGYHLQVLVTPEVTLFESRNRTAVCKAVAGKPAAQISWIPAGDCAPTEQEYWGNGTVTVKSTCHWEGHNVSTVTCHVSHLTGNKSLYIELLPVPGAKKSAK

T2: monomeric soluble human CD200R extracellular domain (human, UniProt Q8TD46 29-265)
T2 construct: extracellular domain; also called hCD200R; monomeric CD200R protein
T2 sequence (looked up): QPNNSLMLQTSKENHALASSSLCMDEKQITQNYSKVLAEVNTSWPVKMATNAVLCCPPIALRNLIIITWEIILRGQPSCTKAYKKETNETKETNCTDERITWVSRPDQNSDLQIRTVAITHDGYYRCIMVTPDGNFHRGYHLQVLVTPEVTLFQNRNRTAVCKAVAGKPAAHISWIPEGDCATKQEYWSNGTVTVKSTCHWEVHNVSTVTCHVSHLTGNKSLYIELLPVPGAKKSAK

T3: human CD200RLa full length construct on HEK293T cells (human, UniProt Q6Q8B3 24-271)
T3 construct: whole, on cells; also called CD200R1L
T3 sequence (looked up): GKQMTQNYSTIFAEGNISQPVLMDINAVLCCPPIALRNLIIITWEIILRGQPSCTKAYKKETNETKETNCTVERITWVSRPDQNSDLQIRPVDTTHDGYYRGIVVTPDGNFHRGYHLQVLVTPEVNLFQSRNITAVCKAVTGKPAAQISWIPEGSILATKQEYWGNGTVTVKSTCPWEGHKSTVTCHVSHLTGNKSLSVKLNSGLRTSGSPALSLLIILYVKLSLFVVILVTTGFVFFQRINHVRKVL

T4: human CD200RLa extracellular domain fused to mouse CD80 transmembrane and intracellular tail, on HEK293T cells (human; mouse, UniProt Q6Q8B3 24-239; Q00609 247-306, limits assumed)
T4 construct: extracellular domain;domain: transmembrane and intracellular tail; also called human CD200RLa chimeric construct
T4 sequence (looked up): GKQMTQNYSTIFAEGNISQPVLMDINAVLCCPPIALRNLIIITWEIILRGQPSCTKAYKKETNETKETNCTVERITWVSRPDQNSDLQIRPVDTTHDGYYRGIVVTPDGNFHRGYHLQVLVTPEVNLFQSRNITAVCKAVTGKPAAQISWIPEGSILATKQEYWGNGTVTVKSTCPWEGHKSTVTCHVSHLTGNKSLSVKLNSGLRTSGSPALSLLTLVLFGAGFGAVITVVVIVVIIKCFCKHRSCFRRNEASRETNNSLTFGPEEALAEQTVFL

T5: cyno CD200RLa full length construct on cells (cynomolgus, UniProt A0A2K5W6R0 30-275)
T5 construct: whole, on cells; also called cynomolgus CD200RLa expressed on cells
T5 sequence: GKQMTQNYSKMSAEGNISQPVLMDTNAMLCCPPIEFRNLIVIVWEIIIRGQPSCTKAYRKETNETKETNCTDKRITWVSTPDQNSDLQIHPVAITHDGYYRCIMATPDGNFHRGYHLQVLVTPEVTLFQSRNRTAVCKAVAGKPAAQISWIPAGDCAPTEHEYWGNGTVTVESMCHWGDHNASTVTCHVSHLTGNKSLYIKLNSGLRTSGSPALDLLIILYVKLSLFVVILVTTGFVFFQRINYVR

T6: extracellular domain of cyno CD200R (SinoBiological 11232-C08H, Met1-Leu267) (cynomolgus, UniProt G7NZT0 25-268)
T6 construct: range 1-267; Bought protein
T6 sequence: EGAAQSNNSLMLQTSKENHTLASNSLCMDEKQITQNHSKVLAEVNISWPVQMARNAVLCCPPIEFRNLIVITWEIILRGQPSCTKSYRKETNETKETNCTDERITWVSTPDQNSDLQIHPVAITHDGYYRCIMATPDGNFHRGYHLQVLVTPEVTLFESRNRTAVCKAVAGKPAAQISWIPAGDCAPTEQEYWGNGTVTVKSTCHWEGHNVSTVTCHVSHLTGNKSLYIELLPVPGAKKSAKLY


Columns and labels:
[1] = target: T1, soluble cynomolgus macaque CD200R1 …; assay: SPR, captured antibody, soluble monomeric receptor injected, single cycle kinetics, 37 C
Description: (§1) The binding affinity and kinetics of the CD200R antibodies of the present disclosure to human or cynomolgus CD200R were determined by surface plasmon resonance (SPR) using the Biacore T200 (GE Healthcare). Mouse antibody capture kit (GE Healthcare) was used to coat a Series S CM5 Sensor Chip (GE Healthcare) with polyclonal anti-mouse IgG.
(§2) Anti-CD200R antibody was captured onto the biosensor surface and a negative control antibody (clone Mopc21; Biolegend) captured in the reference channel. Various concentrations of monomeric soluble human CD200R extracellular domain, soluble cynomolgus macaque CD200R1 extracellular domain or soluble cynomolgus macaque CD200RLa (a highly homologous activating receptor) were injected over the immobilized antibodies in the buffer 10 mM Hepes, 150 mM NaCl, 0.005% v/v Surfactant P20, pH 7.4 (HBS-P) at 37° C., in a single cycle kinetics analysis. Association and dissociation rates were fitted using BiaEvaluation Software (GE Healthcare) after reference and blank subtractions, and dissociation constants were calculated (Table 2).

[2] = target: T2, monomeric soluble human CD200R …; assay: as above
Description: as §1, §2

[3] = target: T3, human CD200RLa full length construct on …; assay: flow cytometry on transiently transfected HEK293T cells
Description: (§3) The binding of CD200R antibodies to human and cyno CD200R and CD200RLa constructs was assessed by flow cytometry of transiently transfected cells. CD200RLa has a charged transmembrane (TM) that is not expected to express well in the absence of appropriate binding partners. Therefore, in addition to the full length CD200RLa constructs, chimeric constructs were used consisting of the CD200RLa extracellular domain fused to mouse CD80 transmembrane and intracellular tail to enable cell surface expression.
(§4) HEK293T cells were plated out at 1 million cells per well in a 6 well plate the day before transfection. The following day cells were transfected with CD200R constructs using 2.5 μg plasmid DNA (a pcDNA3.4 vector containing the CD200R construct sequence) and 10 μl Lipofectamine 2000 (mixed in 200 μl Optimem for 5 minutes then added dropwise to cells). 48 hours after transfection, cells were collected by vigorous pipetting in cold PBS and 50,000 cells pelleted per well in 96 well U bottom plates.
(§5) Cells were then washed and stained for 30 minutes with a secondary staining mix containing a live/dead marker (Near IR LD, Biolegend cat #423106) and APC anti-hIgG (clone QA19A42, Biolegend cat #366906) or AF647 anti-mIgG1 (clone RMG1-1, cat #406618). As a control, cells were separately stained with the commercial anti-CD200R clone OX108 directly labelled with AF647 (Biolegend cat #329308). Finally, cells were washed and resuspended in FACS buffer for acquisition on a FACS Celesta flow cytometer.

[4] = target: T4, human CD200RLa extracellular domain …; assay: as above
Description: as §3, §4, §5

[5] = target: T5, cyno CD200RLa full length construct on …; assay: flow cytometry
Description: as §3, §4
as §5, with “Finally, cells were washed and resuspended in FACS buffer for acquisition on a FACS Celesta flow cytometer.” left out

[6] = target: T5, cyno CD200RLa full length construct on …; assay: flow cytometry on transiently transfected HEK293T cells
Description: as §3, §4, §5

[7] = target: T2, monomeric soluble human CD200R …; assay: BLI (Octet), antibody on anti-human Fc probes, monomeric CD200R in solution, 25 C, 1:1 global fit
Description: Humanised variant antibodies combining the different heavy and light variable domains described in Example 6 were produced by transient transfection of HEK293 cells. All antibodies were expressed on a human IgGI isotype with a P238D Fc mutation. The unpurified supernatants were analysed by Protein A-HPLC to determine the antibody concentrations, as a measure of expression yield. […] Binding affinity of humanized variants to human CD200R was assessed by bio-layer interferometry on an Octet R4 instrument. Each antibody was captured directly onto anti-human Fc capture probes (Sartorius 18-5060) for 60 sec followed by baseline setting in assay buffer (DPBS, 0.01% Polysorbate-20). Association of monomeric CD200R protein to immobilised antibodies was measured in 4 different protein concentrations (300, 100, 30 and 10 nM in assay buffer) at 25° C., with an association time of 120s and dissociation of 120s in assay buffer only. A reference probe with no antibody immobilised was used for background subtraction. Kinetic rate constants and binding KDs were calculated using Octet Analysis Studio 12 software. Global curve fitting based on all 4 concentrations using a 1:1 model was performed, from which kon and koff were obtained to calculate KD using the relationship KD=koff/kon.

[8] = target: T6, extracellular domain of cyno CD200R …; assay: SPR (Biacore), antibody captured by anti-human Fc, CD200R extracellular domain injected, single cycle kinetics, 25 C
Description: This example investigates in vitro CD200R binding of anti-CD200R antibodies by surface plasmon resonance. Surface plasmon resonance binding experiments with purified anti-CD200R antibody (expressed on a hIgG1 isotype with a P238D Fc mutation) were performed using the Biacore T200 and 8K+instruments. Anti-human Fc antibody (Life Technologies H10500) was amine-coupled to a C1 sensor chip using standard amine-coupling chemistry. Residual activated carboxyls were blocked with ethanolamine. Antibodies with a human Fc were then captured on these surfaces.
To assess the binding of hu2131_v20_D56S antibody and variants (antibody hu213l_Q1E and antibody hu2131_Q1E_M99G) to the extracellular domains of human CD200R (Met29-Leu243) and cyno CD200R (SinoBiological 11232-C08H, Metl-Leu267), 10-30 RUs of antibody were captured. CD200R proteins were diluted into running buffer (10 mM HEPES, 150 mM NaCl, 3 mM EDTA, 0.01% Polysorbate 20, pH 7.4 with 0.1 mg/mL BSA) (full-length antibody sequences are disclosed in Table 10). Five three-fold serial dilutions were performed for each CD200R, with highest concentration being 100 nM. Samples were injected using a single cycle kinetics scheme (Karlsson Anal Biochem et al 2006). Data were analyzed using Biacore Insight Evaluation Software and fit to a simple kinetic model, from which kon and koff were obtained to calculate KD using the relationship KD=koff/kon. Experiments were run at 25° C.

Kd [1] [nM]	binding result [3]	binding result [4]	binding result [5]	binding result [6]	Kd [8] [nM]	koff [8] [s⁻¹]	kon [8] [M⁻¹ s⁻¹]	Binder	Kd [2] [nM]	Kd [7] [nM]
0.00825	no binding (tested: 10 ug/ml)	no binding (tested: 10 ug/ml)	no binding					anti-CD200R antibody clone 21.3.1 (mIgG1k isotype) (antibody, V domains shown, Murine hybridoma antibody, IgG1 kappa) VH: QVQLQQPGSELVRPGASVKLSCKASGHTFTSYWMHWVKQRPGQGLEWIGNIYPGSGSINYDEKFKSKAKLTVDTSSRTAYMQLSSLTSEDSAVYYCLTMTGTSWGQGTLVTVSA VL: DVQMIQSPSSLSASLGDIVTMTCQASQGTPINLHWFQQKPGKAPKLLISGASNLEDGVPSRFSGSRYGTAFTLTISSLEDEDMATYFCLQFTYIPWTFGGGTKLEIKR	0.3	
	no binding (tested: 10 ug/ml)	no binding (tested: 10 ug/ml)		no binding (tested: 10 ug/ml)				2131_chimera (antibody, V domains shown) VH: QVQLQQPGSELVRPGASVKLSCKASGHTFTSYWMHWVKQRPGQGLEWIGNIYPGSGSINYDEKFKSKAKLTVDTSSRTAYMQLSSLTSEDSAVYYCLTMTGTSWGQGTLVTVSA VL: DVQMIQSPSSLSASLGDIVTMTCQASQGTPINLHWFQQKPGKAPKLLISGASNLEDGVPSRFSGSRYGTAFTLTISSLEDEDMATYFCLQFTYIPWTFGGGTKLEIK		0.00304
	no binding (tested: 10 ug/ml)	no binding (tested: 10 ug/ml)		no binding (tested: 10 ug/ml)	0.041	1.06e-05	258000	hu2131_v20_D56S hIgG1k P238D (antibody, also called VH4/VL5-D56S) heavy: not shown light: DIQMTQSPSSLSVSVGDRVTITCQASQGTPINLHWFQQKPGKAPKLLISGASNLESGVPSRFSGSGSGTEFTFTISSLQPEDAATYYCLQFTYIPWTFGQGTKLEIKRTVAAPSVFIFPPSDEQLKSGTASVVCLLNNFYPREAKVQWKVDNALQSGNSQESVTEQDSKDSTYSLSSTLTLSKADYEKHKVYACEVTHQGLSSPVTKSFNRGEC		0.00206
	no binding (tested: 10 ug/ml)	no binding (tested: 10 ug/ml)		no binding (tested: 10 ug/ml)	0.0917	2.23e-05	244000	hu2131_Q1E_M99G hIgG1k P238D (antibody, V domains shown) VH: EVQLVQSGAEVKKPGASVKVSCKASGHTFTSYWMHWVRQAPGQGLEWMGNIYPGSGSINYDEKFQGRVTMTADTSTSTVYMELSSLRSEDTAVYYCLTGTGTSWGRGTLVTVSS VL: DIQMTQSPSSLSVSVGDRVTITCQASQGTPINLHWFQQKPGKAPKLLISGASNLESGVPSRFSGSGSGTEFTFTISSLQPEDAATYYCLQFTYIPWTFGQGTKLEIKR		
